B1: ZNF24 (parent)
chain: YGETCFPKGRFERKRNPSRKKQHI
B2: ATL3 (parent)
chain: HFKKTKKMGGKDFSFRYQQELEEE

Variants of: B1
Test: protein stability index of a GFP-peptide fusion (GPS, HEK-293T) (PSI 1-6); higher = more stable
Conditions: c terminus: a fixed tail appended
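Further: lentivirally expressed fusions sorted by FACS into six bins by GFP to DsRed ratio, PSI derived from sequencing read proportions per bin multiplied by bin number.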

Protein stability index: each site, then its substitutions
K8: E 2.96 | T 2.49 | D 3.56
R19: Y 2.68 | P 3.28 | M 2.89 | W 2.42
C5: K 4.01
S18: R 2.82 | Q 3.03
R15: W 2.76 | E 2.93 | G 2.75 | F 2.83 | A 2.76
E3: V 3.66 | T 2.62 | Q 3.2
Y1: V 4.09 | L 3.9 | K 3.75
K21: Q 2.59
G9: V 1.72 | P 2.41 | K 3.15
R13: V 2.19 | N 2.87
E12: N 3.1 | W 2.3 | V 2.16 | I 2.34 | S 2.85
H23: D 2.42 | Q 2.95 | M 3.14 | L 2.57 | C 2.85 | F 2.95
T4: D 3.14
G2: W 3.17
K14: I 2.96 | W 2.34 | N 3.48
K20: C 2.1
I24: D 2.6
N16: S 2.92 | I 2.7
F6: S 3.73
R10: I 2.92 | M 2.9 | T 3.23 | C 2.66 | G 3.44 | S 2.82
P7: Y 1.76 | C 2.81 | Q 2.26 | D 3.5
Q22: Y 2.46 | P 2.59
P17: G 2.97 | K 2.5
F11: E 3.16 | Y 3.32

Variants of: B2
Test: as above
Conditions: c terminus: a fixed tail appended

Protein stability index of substitutions, site by site:
R16: K 2.51 | F 3.07 | G 4.22 | E 5.18 | T 4.47 | P 4.96 | M 2.84 | S 4.39 | L 2.45 | A 2.98 | C 3.28 | V 2.54 | Q 3.08 | W 2.11 | Y 2.18 | D 5.02 | N 3.69 | H 3.09
Y17: H 3.72 | V 2.03 | K 4.89 | P 4.68 | Q 4.78 | W 2.61 | R 5.25 | N 5.28 | S 3.14 | L 2.1 | E 5.02 | D 5.61 | G 4.68 | T 2.38 | M 4.21
G9: H 1.84 | L 2.26 | S 1.75 | E 1.77 | N 1.99 | C 2.61 | R 1.77 | K 2.7 | A 1.41 | F 2.64 | Q 1.96 | T 2.11 | V 1.82 | D 2.23 | Y 1.74 | W 1.88 | M 1.28 | I 2.48 | P 2.05
D12: V 2.7 | S 2.65 | I 2.43 | Y 2.32 | R 1.96 | L 2.67 | M 1.46 | N 2.1 | A 1.88 | T 2.24 | E 2.34 | P 1.99
K11: E 1.2 | W 1.78 | Q 2.24 | F 1.24 | T 2.22 | H 2.11 | I 2.27 | V 2.39 | Y 1.26 | S 2.4 | A 2.69 | C 2.17 | P 2.06 | N 1.78
F15: M 2.39 | A 2.54 | N 1.66 | D 1.76 | I 1.42 | L 2.46 | R 1.83 | P 4.31 | T 2.24 | E 1.39 | C 3.07 | Y 1.54 | G 2.22 | K 3.04 | H 2.71
E22: F 1.85 | S 1.8 | T 2.03 | P 3.31 | L 1.99 | Q 1.59 | Y 2.15 | V 2.41 | C 3.15 | G 2.5 | W 1.3 | D 2.2 | I 1.79 | K 3.18 | M 1.8 | N 1.72 | H 2.83
F13: A 5.27 | D 5.57 | L 4.45 | K 4.09 | P 4.29 | C 4.74 | H 2.79 | N 5.05 | G 5.01 | Y 2.75 | I 4.91 | T 4.97 | R 3.94 | Q 5.21 | V 4.96 | E 5.36 | M 3.76 | S 4.83
Q18: D 4.65 | E 2.73 | L 2.64 | R 1.44 | A 2 | Y 1.81 | P 4.2 | K 2.09 | G 1.87 | I 1.85 | N 2.54 | T 2.27 | H 2.34
E20: V 2.51 | P 3.22 | A 3.31 | G 3.11 | W 2 | N 3.16 | D 2.25 | M 3.43 | C 4.73 | F 3.58 | I 3.47 | S 3.94 | Y 3.14 | R 3.96 | H 3.98 | K 4.17 | T 3.31 | Q 2.91
L21: V 2.72 | R 2.46 | E 3.19 | S 4 | N 4.27 | C 2.1 | Y 1.4 | D 4.71 | F 1.53 | I 2.98 | Q 2.4 | M 1.53 | H 2.44 | T 4.24 | K 3.3 | P 4.57
E24: T 2.39 | Y 1.54 | N 3.49 | V 3.28 | C 2.74 | K 3.43 | I 2.16 | R 3.35 | D 2.28 | P 3.69 | S 2.85 | A 2.68 | M 1.81 | F 2.01 | W 1.9 | Q 2.08 | H 3.13 | G 2.63
G10: E 5.39 | R 2.03 | I 1.68 | V 2.04 | Y 1.79 | A 1.75 | S 3.53 | L 2.07 | P 1.3 | M 2.71 | D 1.8 | C 1.56 | K 2.56 | T 1.61 | Q 1.86 | F 1.82 | H 2.19 | W 1.7
S14: K 3.31 | L 2.35 | F 3.85 | C 1.08 | M 2.91 | D 4.48 | G 2.54 | Y 3.61 | T 3.24 | E 1.53 | P 3.12 | W 4.01 | H 4.29 | V 2.17 | N 4.1 | Q 1.93
Q19: N 4.01 | E 2.45 | W 2.03 | D 3.36 | R 2.52 | V 2.92 | T 2.21 | F 1.71 | A 3.52 | H 2.38 | P 3.56 | G 3.99 | S 2.5 | I 1.46 | K 1.89 | C 1.57
E23: L 2.22 | I 1.97 | Q 1.81 | A 2.2 | M 2.61 | F 2.27 | D 2.42 | S 2.2 | P 4.12 | N 2.67 | C 3.01 | Y 1.71 | K 2.46 | V 2.27 | G 1.88 | T 2.55 | H 2.02
M8: R 2.81 | N 2.4 | Q 2.21 | W 2.35 | S 2.77 | Y 1.99 | L 1.48 | V 1.64 | T 2.63 | P 1.92
